The results in this text go back to the supplement of paper PMC9112550, “Optimization of the antimicrobial peptide Bac7 by deep mutational scanning” (BMC Biology, 2022).

The series concerns Escherichia coli TOP10. The series is described as follows: shrunken log2 fold change of peptide-encoding DNA abundance (4.5 h post-induction vs induction); higher = less antimicrobial activity (less host growth inhibition). To be noted: time post-induction: 4.5 h; library: site-saturation at positions 5, 18, 19, 20.
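Also: peptides expressed intracellularly from a pBAD plasmid library in pooled LB shake-flask culture, induced with 0.3% L-arabinose, DNA abundance read by NGS, three biological replicates, DESeq2 with apeglm shrinkage.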

RRIRYRPPRLPRPRPRPKNWPRP: the “shrunken log2 fold change” value is -0.3.

Consider RRIRKRPPRLPRPRPRPEYSPRP, for which the “shrunken log2 fold change” value came out at 0.0499.

For RRIRWRPPRLPRPRPRPQHVPRP, the “shrunken log2 fold change” value was -0.274.

With RRIRDRPPRLPRPRPRPYYPPRP, the “shrunken log2 fold change” value was -0.248.

For RRIRKRPPRLPRPRPRPRDAPRP, the “shrunken log2 fold change” value amounted to 0.558.

Take RRIRVRPPRLPRPRPRPLHAPRP: the “shrunken log2 fold change” value is 0.473.

Regarding RRIRLRPPRLPRPRPRPNLHPRP, the “shrunken log2 fold change” value was -0.347.

In the case of RRIRFRPPRLPRPRPRPEWFPRP, the “shrunken log2 fold change” value came out at 0.0431.

For the sequence RRIRRRPPRLPRPRPRPWDHPRP, the “shrunken log2 fold change” value came out at 0.0105.

For the sequence RRIRTRPPRLPRPRPRPMIFPRP, the “shrunken log2 fold change” value was -0.738.

As to RRIRGRPPRLPRPRPRPEWEPRP, the “shrunken log2 fold change” value is 0.00476.

As to RRIRKRPPRLPRPRPRPTEWPRP, the “shrunken log2 fold change” value was 0.0407.

RRIRVRPPRLPRPRPRPPIHPRP: the “shrunken log2 fold change” value is 0.042.

As for RRIRERPPRLPRPRPRPWMPPRP, the “shrunken log2 fold change” value was -0.062.

Take RRIRMRPPRLPRPRPRPWLIPRP: the “shrunken log2 fold change” value was 0.0295.

Take RRIRYRPPRLPRPRPRPGCTPRP: the “shrunken log2 fold change” value is -0.0794.

With RRIRIRPPRLPRPRPRPPKFPRP, the “shrunken log2 fold change” value is -0.294.

RRIRERPPRLPRPRPRPFEQPRP: the “shrunken log2 fold change” value is -0.126.

On to RRIRTRPPRLPRPRPRPWYSPRP, for which the “shrunken log2 fold change” value is -0.818.

RRIRSRPPRLPRPRPRPAIEPRP: the “shrunken log2 fold change” value turned out to be 0.00515.

Regarding RRIRFRPPRLPRPRPRPSISPRP, the “shrunken log2 fold change” value was -1.18.

RRIRIRPPRLPRPRPRPCQFPRP: the “shrunken log2 fold change” value was -0.395.

As for RRIRPRPPRLPRPRPRPFDMPRP, the “shrunken log2 fold change” value came out at 0.08.

As to RRIRSRPPRLPRPRPRPHLFPRP, the “shrunken log2 fold change” value was -0.32.

As to RRIRIRPPRLPRPRPRPCPHPRP, the “shrunken log2 fold change” value was -0.143.

RRIRWRPPRLPRPRPRPPIIPRP: the “shrunken log2 fold change” value is -0.151.

For the sequence RRIRERPPRLPRPRPRPPVVPRP, the “shrunken log2 fold change” value is -0.0806.

For RRIRKRPPRLPRPRPRPSVIPRP, the “shrunken log2 fold change” value is -0.0922.

For RRIRFRPPRLPRPRPRPLIHPRP, the “shrunken log2 fold change” value was -0.891.

With RRIRRRPPRLPRPRPRPHWKPRP, the “shrunken log2 fold change” value was -0.00963.

Consider RRIRCRPPRLPRPRPRPTYNPRP, for which the “shrunken log2 fold change” value was -0.722.

Turning to RRIRKRPPRLPRPRPRPAVAPRP, the “shrunken log2 fold change” value was 0.0118.

Turning to RRIRHRPPRLPRPRPRPRGRPRP, the “shrunken log2 fold change” value was -0.0974.

On to RRIRKRPPRLPRPRPRPEGHPRP, for which the “shrunken log2 fold change” value was 0.0594.

Consider RRIRFRPPRLPRPRPRPHKWPRP, for which the “shrunken log2 fold change” value was -0.073.

Turning to RRIRWRPPRLPRPRPRPMPYPRP, the “shrunken log2 fold change” value is -0.0164.

Turning to RRIRSRPPRLPRPRPRPDLIPRP, the “shrunken log2 fold change” value is -0.00967.

For RRIRHRPPRLPRPRPRPEGNPRP, the “shrunken log2 fold change” value is -0.0642.

Take RRIRDRPPRLPRPRPRPCACPRP: the “shrunken log2 fold change” value turned out to be 0.112.

With RRIRHRPPRLPRPRPRPDNGPRP, the “shrunken log2 fold change” value is -0.00804.

With RRIRLRPPRLPRPRPRPIIKPRP, the “shrunken log2 fold change” value is -0.527.

As for RRIRTRPPRLPRPRPRPEYYPRP, the “shrunken log2 fold change” value was -0.855.

On to RRIRARPPRLPRPRPRPGPSPRP, for which the “shrunken log2 fold change” value amounted to 0.6.

As for RRIRMRPPRLPRPRPRPSEFPRP, the “shrunken log2 fold change” value is -0.143.

In the case of RRIRRRPPRLPRPRPRPEIHPRP, the “shrunken log2 fold change” value was -0.265.

RRIRVRPPRLPRPRPRPRHAPRP: the “shrunken log2 fold change” value amounted to 0.229.

In the case of RRIRCRPPRLPRPRPRPECTPRP, the “shrunken log2 fold change” value was -0.0491.

As for RRIRIRPPRLPRPRPRPHAKPRP, the “shrunken log2 fold change” value was -0.348.

For the sequence RRIRERPPRLPRPRPRPDGVPRP, the “shrunken log2 fold change” value was -0.162.

For RRIRNRPPRLPRPRPRPSEVPRP, the “shrunken log2 fold change” value is -0.0684.

In the case of RRIRRRPPRLPRPRPRPYVGPRP, the “shrunken log2 fold change” value is -0.00208.

In the case of RRIRKRPPRLPRPRPRPTDSPRP, the “shrunken log2 fold change” value was -0.0461.

For the sequence RRIRTRPPRLPRPRPRPARLPRP, the “shrunken log2 fold change” value was 0.215.

In the case of RRIRLRPPRLPRPRPRPSWTPRP, the “shrunken log2 fold change” value is -0.0555.

Consider RRIRGRPPRLPRPRPRPTIAPRP, for which the “shrunken log2 fold change” value was determined as 0.895.

Turning to RRIRSRPPRLPRPRPRPNKHPRP, the “shrunken log2 fold change” value is -0.507.

For RRIRCRPPRLPRPRPRPVHGPRP, the “shrunken log2 fold change” value amounted to 0.267.

Regarding RRIRWRPPRLPRPRPRPQWLPRP, the “shrunken log2 fold change” value stood at 0.275.

As to RRIRNRPPRLPRPRPRPAVCPRP, the “shrunken log2 fold change” value was 0.158.

For RRIRRRPPRLPRPRPRPMAIPRP, the “shrunken log2 fold change” value was 0.202.

With RRIRFRPPRLPRPRPRPITNPRP, the “shrunken log2 fold change” value was -0.352.

As for RRIRNRPPRLPRPRPRPNDPPRP, the “shrunken log2 fold change” value was 0.188.

In the case of RRIRPRPPRLPRPRPRPRVQPRP, the “shrunken log2 fold change” value was 0.398.

RRIRNRPPRLPRPRPRPSMMPRP: the “shrunken log2 fold change” value is -0.589.

For RRIRNRPPRLPRPRPRPEGGPRP, the “shrunken log2 fold change” value is -0.00659.

In the case of RRIRYRPPRLPRPRPRPCVAPRP, the “shrunken log2 fold change” value is -0.11.

For RRIRGRPPRLPRPRPRPMWAPRP, the “shrunken log2 fold change” value is 0.925.

Take RRIRERPPRLPRPRPRPHSTPRP: the “shrunken log2 fold change” value was -0.817.

Consider RRIRLRPPRLPRPRPRPVKAPRP, for which the “shrunken log2 fold change” value was -0.0553.

As to RRIRQRPPRLPRPRPRPKTRPRP, the “shrunken log2 fold change” value amounted to 0.247.

RRIRFRPPRLPRPRPRPHPHPRP: the “shrunken log2 fold change” value was -0.168.

Regarding RRIRDRPPRLPRPRPRPAHQPRP, the “shrunken log2 fold change” value turned out to be 0.516.

In the case of RRIRQRPPRLPRPRPRPDVCPRP, the “shrunken log2 fold change” value came out at 0.13.

As to RRIRIRPPRLPRPRPRPDYHPRP, the “shrunken log2 fold change” value is -1.9.

RRIRSRPPRLPRPRPRPKGGPRP: the “shrunken log2 fold change” value worked out at 0.149.

Regarding RRIRWRPPRLPRPRPRPIFDPRP, the “shrunken log2 fold change” value was 0.273.

As for RRIRNRPPRLPRPRPRPMWLPRP, the “shrunken log2 fold change” value was 0.0773.

Turning to RRIRHRPPRLPRPRPRPCSYPRP, the “shrunken log2 fold change” value was -0.0203.

Consider RRIRGRPPRLPRPRPRPNRFPRP, for which the “shrunken log2 fold change” value amounted to 0.282.

Consider RRIRPRPPRLPRPRPRPWDNPRP, for which the “shrunken log2 fold change” value is -0.00581.

With RRIRQRPPRLPRPRPRPARHPRP, the “shrunken log2 fold change” value was 0.0911.

With RRIRWRPPRLPRPRPRPCPLPRP, the “shrunken log2 fold change” value is -0.247.

In the case of RRIRSRPPRLPRPRPRPDAVPRP, the “shrunken log2 fold change” value is 0.32.

As for RRIRIRPPRLPRPRPRPHMAPRP, the “shrunken log2 fold change” value is -0.367.

For the sequence RRIRMRPPRLPRPRPRPIMHPRP, the “shrunken log2 fold change” value is -0.128.

With RRIRERPPRLPRPRPRPWGAPRP, the “shrunken log2 fold change” value was 0.165.

With RRIRLRPPRLPRPRPRPEVMPRP, the “shrunken log2 fold change” value worked out at 0.0474.

For the sequence RRIRIRPPRLPRPRPRPARWPRP, the “shrunken log2 fold change” value is 0.412.

With RRIRHRPPRLPRPRPRPQMCPRP, the “shrunken log2 fold change” value is -0.0203.

As to RRIRTRPPRLPRPRPRPSMHPRP, the “shrunken log2 fold change” value was -0.152.

Turning to RRIRNRPPRLPRPRPRPRHEPRP, the “shrunken log2 fold change” value was -0.0217.

For RRIRDRPPRLPRPRPRPILAPRP, the “shrunken log2 fold change” value is 0.115.

RRIRKRPPRLPRPRPRPDLMPRP: the “shrunken log2 fold change” value came to 0.0729.

Regarding RRIRDRPPRLPRPRPRPFKFPRP, the “shrunken log2 fold change” value was -0.122.

In the case of RRIRDRPPRLPRPRPRPVVIPRP, the “shrunken log2 fold change” value was 2.82.

Turning to RRIRDRPPRLPRPRPRPMDDPRP, the “shrunken log2 fold change” value was -0.000946.

Regarding RRIRGRPPRLPRPRPRPMAHPRP, the “shrunken log2 fold change” value was 0.63.

With RRIRERPPRLPRPRPRPIRWPRP, the “shrunken log2 fold change” value is -0.0251.

RRIRSRPPRLPRPRPRPDCQPRP: the “shrunken log2 fold change” value came out at 0.117.

As for RRIRQRPPRLPRPRPRPLGAPRP, the “shrunken log2 fold change” value worked out at 0.285.

For the sequence RRIRFRPPRLPRPRPRPMCQPRP, the “shrunken log2 fold change” value is -0.123.

Consider RRIRPRPPRLPRPRPRPIEMPRP, for which the “shrunken log2 fold change” value amounted to 0.00861.

As for RRIRHRPPRLPRPRPRPLWCPRP, the “shrunken log2 fold change” value is -0.22.

Consider RRIRRRPPRLPRPRPRPFAIPRP, for which the “shrunken log2 fold change” value is 0.102.

For RRIRHRPPRLPRPRPRPRPLPRP, the “shrunken log2 fold change” value worked out at 0.255.

For the sequence RRIRARPPRLPRPRPRPICCPRP, the “shrunken log2 fold change” value was determined as 0.316.

For the sequence RRIRLRPPRLPRPRPRPSAMPRP, the “shrunken log2 fold change” value is -0.347.

For the sequence RRIRQRPPRLPRPRPRPDPKPRP, the “shrunken log2 fold change” value was determined as 0.0129.

With RRIRFRPPRLPRPRPRPPHLPRP, the “shrunken log2 fold change” value was -0.0216.

For the sequence RRIRGRPPRLPRPRPRPYNAPRP, the “shrunken log2 fold change” value was -0.332.

As to RRIRSRPPRLPRPRPRPQKRPRP, the “shrunken log2 fold change” value was -0.343.

With RRIRWRPPRLPRPRPRPRVPPRP, the “shrunken log2 fold change” value came to 0.444.

In the case of RRIRDRPPRLPRPRPRPMADPRP, the “shrunken log2 fold change” value turned out to be 0.523.

Consider RRIRRRPPRLPRPRPRPIWAPRP, for which the “shrunken log2 fold change” value was 0.0342.

Regarding RRIRQRPPRLPRPRPRPAHCPRP, the “shrunken log2 fold change” value was 0.0134.

For RRIRARPPRLPRPRPRPPYGPRP, the “shrunken log2 fold change” value came to 0.0793.

For the sequence RRIRNRPPRLPRPRPRPSIGPRP, the “shrunken log2 fold change” value was -0.109.

Turning to RRIRLRPPRLPRPRPRPMAWPRP, the “shrunken log2 fold change” value is -0.0215.

With RRIRDRPPRLPRPRPRPQATPRP, the “shrunken log2 fold change” value was 0.403.

RRIRRRPPRLPRPRPRPEMAPRP: the “shrunken log2 fold change” value was 0.145.

With RRIRCRPPRLPRPRPRPLGNPRP, the “shrunken log2 fold change” value is -0.229.

Turning to RRIRRRPPRLPRPRPRPRYQPRP, the “shrunken log2 fold change” value was found to be 0.0511.

For the sequence RRIRHRPPRLPRPRPRPVCSPRP, the “shrunken log2 fold change” value was -0.168.

On to RRIRERPPRLPRPRPRPPAYPRP, for which the “shrunken log2 fold change” value was -0.173.

On to RRIRWRPPRLPRPRPRPFDSPRP, for which the “shrunken log2 fold change” value was -0.124.
